One test concerns the target Bcl-xL, Q07817. The experiment in a line: peptide SPOT array, c-Myc-tagged receptor at 1 uM or 100 nM, anti-c-Myc-Cy3.
In the next test the target is T1, Mcl-1, Q07820.
T1 chain: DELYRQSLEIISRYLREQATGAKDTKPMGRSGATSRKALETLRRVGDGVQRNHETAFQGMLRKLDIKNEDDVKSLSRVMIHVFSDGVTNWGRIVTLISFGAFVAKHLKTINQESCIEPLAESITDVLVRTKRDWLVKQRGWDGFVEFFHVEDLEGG
The test is described as above.

Chain of Bcl-xL, Q07817 (Q07817 1-209): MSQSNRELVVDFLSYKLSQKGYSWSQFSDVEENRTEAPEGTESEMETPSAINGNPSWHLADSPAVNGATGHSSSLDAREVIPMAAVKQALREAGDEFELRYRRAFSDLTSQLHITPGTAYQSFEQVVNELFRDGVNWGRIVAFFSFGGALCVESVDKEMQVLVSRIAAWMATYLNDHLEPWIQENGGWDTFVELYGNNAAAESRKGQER

B1: STRN (peptide)
chain: LGLGELAGLTVANELDSLTYDIANNK
Take B1: the SPOT signal as a fraction of Bim BH3's signal on the same receptor and array in the test with Bcl-xL, Q07817 worked out at 0.02; with Mcl-1, Q07820 it was 0.01.

B2: KPNB1 (peptide)
chain: DHTDGVVACADGLIGDLCTAFGKDVL
As for B2, the SPOT signal as a fraction of Bim BH3's signal on the same receptor and array is 0.02 with Bcl-xL, Q07817 and 0.01 in the test with Mcl-1, Q07820.

B3: PKD2L1 (peptide)
chain: NKTMTQLSSTDARCAKDILGFAVMFF
As for B3, the SPOT signal as a fraction of Bim BH3's signal on the same receptor and array turned out to be 0.03 with Bcl-xL, Q07817 and 0.02 in the test with Mcl-1, Q07820.

B4: CLTC (peptide)
chain: FRLAQMCGLHDVVHADELEELINYYQ
Turning to B4, the SPOT signal as a fraction of Bim BH3's signal on the same receptor and array with Bcl-xL, Q07817 stood at 0.02; with Mcl-1, Q07820 it was 0.02.

B5: PCM1 (peptide)
chain: DSLAKFAGRKLKDCLEDLLVEISEVL
Consider B5, for which the SPOT signal as a fraction of Bim BH3's signal on the same receptor and array stood at 0.02 in the test with Bcl-xL, Q07817 and 0.02 in the test with Mcl-1, Q07820.

B6: KIF13A (peptide)
chain: RIEMWISILELNELLEYAAVELHQAK
As for B6, the SPOT signal as a fraction of Bim BH3's signal on the same receptor and array with Bcl-xL, Q07817 came out at 0.02; with Mcl-1, Q07820, 0.03.

B7: BIRC6 (peptide)
chain: CGDLASLSIDIWTLGEEVDGRRLVVA
As for B7, the SPOT signal as a fraction of Bim BH3's signal on the same receptor and array with Bcl-xL, Q07817 came out at 0.02; in the test with Mcl-1, Q07820, 0.02.

B8: SPAG9 (peptide)
chain: HPRKESQVRQLAWVLDGVWVSIRLDS
Take B8: the SPOT signal as a fraction of Bim BH3's signal on the same receptor and array with Bcl-xL, Q07817 was 0.02; in the test with Mcl-1, Q07820, 0.02.

B9: ITPR3 (peptide)
chain: KKCQDMIMTELTNALDDVVVFYNDKA
B9: the SPOT signal as a fraction of Bim BH3's signal on the same receptor and array was 0.02 with Bcl-xL, Q07817 and 0.02 with Mcl-1, Q07820.

B10: LIPE (peptide)
chain: CALLGSTGERICLAGDSAGGNLCFTV
For the molecule B10, the SPOT signal as a fraction of Bim BH3's signal on the same receptor and array with Bcl-xL, Q07817 was found to be 0.01; with Mcl-1, Q07820, 0.01.

B11: CIITA (peptide)
chain: PPDAHVLGKALEAAGQDFSLDLRSTG
B11: the SPOT signal as a fraction of Bim BH3's signal on the same receptor and array came out at 0.02 in the test with Bcl-xL, Q07817 and 0.01 with Mcl-1, Q07820.

B12: CDC42BPG (peptide)
chain: ELQAPATVQSLGLLLDRLCVGAAGGF
On to B12, for which the SPOT signal as a fraction of Bim BH3's signal on the same receptor and array with Bcl-xL, Q07817 came to 0.01; in the test with Mcl-1, Q07820, 0.01.

B13: NEDD9 (peptide)
chain: SKFVILSAHKDVFIGDTLTRQVTAQD
Consider B13, for which the SPOT signal as a fraction of Bim BH3's signal on the same receptor and array worked out at 0.02 in the test with Bcl-xL, Q07817 and 0.02 with Mcl-1, Q07820.

B14: CREBBP (peptide)
chain: TPSRSALSSELSLVGDTTGDTLEKFV
Take B14: the SPOT signal as a fraction of Bim BH3's signal on the same receptor and array in the test with Bcl-xL, Q07817 was 0.02; with Mcl-1, Q07820, 0.01.

B15: RRM1 (peptide)
chain: NKRHRPIGIGVQGLLDAFILMRYPFE
In the case of B15, the SPOT signal as a fraction of Bim BH3's signal on the same receptor and array with Bcl-xL, Q07817 came out at 0.04; with Mcl-1, Q07820, 0.05.

The values are drawn from paper PMC4072508, “Genome-Wide Prediction and Validation of Peptides That Bind Human Prosurvival Bcl-2 Proteins” (PLoS Computational Biology, 2014).
